According to doi:10.1101/2022.03.04.482347:
Values joined by “and” are separate entries in the source; they are usually repeats but may differ in a detail not shown here. Equal values may be shown once.

Assays:
[1] = target: mouse PROM1 SV8 lacking exon 19a, Flag-tagged (mouse); experiment: native gel or EMSA
[2] = target: mouse PROM1, photoreceptor-specific isoform SV8 (contains exon 19a), Flag-tagged (mouse); experiment: native gel or EMSA

stoichiometry N [1] | stoichiometry N [2] | Substance
2 and 4 |  | mouse PROM1 SV8 lacking exon 19a, Flag-tagged (natural protein)
 | 2 and 4 | mouse PROM1, photoreceptor-specific isoform SV8 (contains exon 19a), Flag-tagged (natural protein)
